{"source": "patent US20220177579A1", "about": "(Memorial Sloan Kettering, published 2022)", "binders": {"B1": {"name": "CD19-BsAb BC250 (hFMC63 VL-2/VH-1b x CD3 IgG-scFv bispecific antibody) (bispecific antibody)", "heavy": "not shown", "light": "DIQMTQSPSSLSASVGDRVTITCQASQDISKYLNWYQQKPGKAVKLLIYHTSRLHSGVPSRFSGSGSGTDYTLTISSLQPEDIATYFCQQGNTLPYTFGGGTKLEITRTVAAPSVFIFPPSDEQLKSGTASVVCLLNNFYPREAKVQWKVDNALQSGNSQESVTEQDSKDSTYSLSSTLTLSKADYEKHKVYACEVTHQGLSSPVTKSFNRGECTSGGGGSGGGGSGGGGSQVQLVQSGGGVVQPGRSLRLSCKASGYTFTRYTMHWVRQAPGKCLEWIGYINPSRGYTNYNQKFKDRFTISRDNSKNTAFLQMDSLRPEDTGVYFCARYYDDHYSLDYWGQGTPVTVSSGGGGSGGGGSGGGGSGGGGSGGGGSGGGGSDIQMTQSPSSLSASVGDRVTITCSASSSVSYMNWYQQTPGKAPKRWIYDTSKLASGVPSRFSGSGSGTDYTFTISSLQPEDIATYYCQQWSSNPFTFGCGTKLQITR"}}, "target": "T1, human CD19 on CD19(+) NALM6 acute lymphoid leukemia cells (human, UniProt P15391 20-556)", "T1 sequence": "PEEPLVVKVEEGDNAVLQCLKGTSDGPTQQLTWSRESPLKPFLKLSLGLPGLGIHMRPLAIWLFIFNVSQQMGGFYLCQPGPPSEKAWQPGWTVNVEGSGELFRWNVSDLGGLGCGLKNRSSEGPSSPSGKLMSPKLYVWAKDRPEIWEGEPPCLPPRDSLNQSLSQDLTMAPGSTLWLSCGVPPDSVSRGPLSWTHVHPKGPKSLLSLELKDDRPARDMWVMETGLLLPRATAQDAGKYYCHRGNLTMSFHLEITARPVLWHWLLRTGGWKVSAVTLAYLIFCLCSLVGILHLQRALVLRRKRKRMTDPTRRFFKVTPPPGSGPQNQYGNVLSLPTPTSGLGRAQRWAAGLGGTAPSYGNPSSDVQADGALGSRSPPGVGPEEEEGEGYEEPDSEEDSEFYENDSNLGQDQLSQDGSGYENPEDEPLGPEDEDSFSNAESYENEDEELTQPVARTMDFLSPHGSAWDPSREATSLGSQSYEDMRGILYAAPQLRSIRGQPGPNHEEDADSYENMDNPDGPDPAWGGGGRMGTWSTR", "assay": "cell-based or functional assay", "data": [{"binder": "B1", "values": [{"measurement": "EC50 for cell lysis of NALM6 cells (standard 4-hour 51Cr release assay with activated T cells)", "value": 0.042, "unit": "pM"}]}]}
